Measured values taken from the supplement of paper PMC7877785.
± gives the uncertainty stated by the source.

Experiment: self-splicing fitness, log relative to wild type (ln ratio); higher = more splicing; Tetrahymena group I intron in knt gene, E. coli kanamycin selection, DiMSum; sequences stand for … in CUCUCU…GGAGGGAAAAGUUAUCAGGCAUGCACCUGGUAGCUAGUCUUUAAACCAAUAGAUUGCAUCGGUUUAAAAGGCAAGACCGUCAAAUUGCGGGAAAGGGGUCAACAGCCGUUCAGUACCAAGUCUCAGGGGAAACUUUGAGAUGGCCUUGCAAAGGGUAUGGUAAUAAGCUGACGGACAUGGUCCUAACCACGCAGCCAAGUCCUAAGUCAACAGAUCUUCUGUUGAUAUGGAUGCAGUUCACAGACUAAAUGUCGGUCGGGGAAGAUGUAUUCUUCUCAUAAGAUAUAGUCGGACCUCUCCUUAAUGGGAGCUAGCGGAUGAAGUGAUGCAACACUGGAGCCGCUGGGAACUAAUUUGUAUGCGAAAGUAUAUUGAUUAGUUUUGGAGUACUCGUGGUCG
Method in brief: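 DiMSum derived fitness as the error-weighted combination of fold changes across replicates, kanamycin versus no kanamycin, normalised to wild type. E. coli BL21(DE3) held the library, which randomised all eight P1ex-region intron nucleotides within the knt kanamycin-resistance gene on pET-22b(+). Six replicate transformations grew overnight at 37°C or 30°C on LB agar with or without 25 μg/mL kanamycin, also containing 100 μg/mL carbenicillin, 50 μM IPTG and 0.2% rhamnose, and pooled colonies were amplicon-sequenced on an Illumina HiSeq 2500.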

Row | Sequence | self-splicing fitness (ln) (30 °C) | self-splicing fitness (ln) (37 °C)
1 | CACCAGCAAUAUUACGUAGU | -3.23 ± 0.075 | -1.53 ± 0.079
2 | CACCAGCAAUAUUACGUAUA | -4.42 ± 0.24 | -2.33 ± 0.18
3 | CACCAGCAAUAUUACGUCAC | -2.9 ± 0.15 | -2.9 ± 0.3
4 | CACCAGCAAUAUUACGUCGC | -3.1 ± 0.12 | -2.28 ± 0.17
5 | CACCAGCAAUAUUACGUGCA | -4.11 ± 0.17 | -2.56 ± 0.15
6 | CACCAGCAAUAUUACGUUCA | -3.07 ± 0.16 | -2.15 ± 0.16
7 | CACGAGCAAUAUUACGAUCA | -2.68 ± 0.22 | -2.11 ± 0.19
8 | CACGAGCAAUAUUACGAUGA | -3.21 ± 0.24 | -2.17 ± 0.23
9 | CACGAGCAAUAUUACGAUGC | -3.47 ± 0.37 | -2.74 ± 0.29
10 | CACGAGCAAUAUUACGCAAG | -2.4 ± 0.19 | -0.867 ± 0.15
11 | CACGAGCAAUAUUACGCACU | -2.87 ± 0.39 | -1.61 ± 0.23
12 | CACGAGCAAUAUUACGCCGC | -2.93 ± 0.35 | -1.33 ± 0.48
13 | CACGAGCAAUAUUACGCGUC | -3.19 ± 0.32 | -1.52 ± 0.19
14 | CACGAGCAAUAUUACGCUCU | -2.57 ± 0.18 | -2.93 ± 0.28
15 | CACGAGCAAUAUUACGGAGA | -3.38 ± 0.2 | -2.85 ± 0.25
16 | CACGAGCAAUAUUACGGCAC | -2.97 ± 0.23 | -2.43 ± 0.25
17 | CACGAGCAAUAUUACGGUAA | – | -2.37 ± 0.27
18 | CACGAGCAAUAUUACGGUCU | -3.44 ± 0.19 | -1.73 ± 0.16
19 | CACGAGCAAUAUUACGUAAA | – | -1.83 ± 0.21
20 | CACGAGCAAUAUUACGUACA | -3.75 ± 0.37 | -2.49 ± 0.24
21 | CACGAGCAAUAUUACGUACC | -2.54 ± 0.5 | –
22 | CACGAGCAAUAUUACGUCAA | -2.34 ± 0.17 | -2.13 ± 0.23
23 | CACGAGCAAUAUUACGUCUA | -1.3 ± 0.32 | -1.55 ± 0.27
24 | CACGAGCAAUAUUACGUUAU | -3.4 ± 0.19 | -3.62 ± 0.31
25 | CACGAGCAAUAUUACGUUCU | -3.56 ± 0.2 | -2.02 ± 0.26

Row | Sequence | self-splicing fitness (ln) (30 °C) | self-splicing fitness (ln) (37 °C)
26 | CACUAGCAAUAUUACGAAAG | -1.23 ± 0.062 | -0.136 ± 0.084
27 | CACUAGCAAUAUUACGACCU | -2.03 ± 0.28 | -1.6 ± 0.18
28 | CACUAGCAAUAUUACGACGC | -2.52 ± 0.12 | -1.02 ± 0.13
29 | CACUAGCAAUAUUACGACGU | -2.27 ± 0.14 | -1.8 ± 0.11
30 | CACUAGCAAUAUUACGAGAU | -3.87 ± 0.39 | -2.97 ± 0.2
31 | CACUAGCAAUAUUACGAUCG | 0.531 ± 0.067 | 0.717 ± 0.071
32 | CACUAGCAAUAUUACGAUUG | -0.641 ± 0.07 | -0.457 ± 0.081
33 | CACUAGCAAUAUUACGCAAA | -2.95 ± 0.21 | -2.46 ± 0.27
34 | CACUAGCAAUAUUACGCCAG | -1.1 ± 0.08 | -0.0668 ± 0.11
35 | CACUAGCAAUAUUACGCCCG | 0.71 ± 0.13 | 0.619 ± 0.12
36 | CACUAGCAAUAUUACGCCUU | -1.4 ± 0.27 | -1.19 ± 0.16
37 | CACUAGCAAUAUUACGCGGU | -4.59 ± 0.26 | -3.62 ± 0.28
38 | CACUAGCAAUAUUACGCGUG | -3.99 ± 0.21 | -3.12 ± 0.25
39 | CACUAGCAAUAUUACGCUGG | -4.08 ± 0.37 | -1.87 ± 0.22
40 | CACUAGCAAUAUUACGGAAU | -4 ± 0.27 | -2.3 ± 0.32
41 | CACUAGCAAUAUUACGGACC | – | -1.8 ± 0.24
42 | CACUAGCAAUAUUACGGACG | 0.105 ± 0.064 | 0.332 ± 0.08
43 | CACUAGCAAUAUUACGGGAG | -1.54 ± 0.073 | -0.152 ± 0.076
44 | CACUAGCAAUAUUACGGGCC | -4.05 ± 0.25 | -2.56 ± 0.22
45 | CACUAGCAAUAUUACGUACG | -0.239 ± 0.071 | 0.494 ± 0.083
46 | CACUAGCAAUAUUACGUCUA | -2.25 ± 0.23 | -2.52 ± 0.29
47 | CACUAGCAAUAUUACGUGCC | -4.04 ± 0.46 | -2.17 ± 0.29
48 | CACUAGCAAUAUUACGUUAA | -2.77 ± 0.2 | -2.11 ± 0.23
49 | CACUAGCAAUAUUACGUUAG | -3.34 ± 0.14 | -2.92 ± 0.17
50 | CACUAGCAAUAUUACGUUCC | -3.39 ± 0.17 | -1.65 ± 0.17

Row | Sequence | self-splicing fitness (ln) (30 °C) | self-splicing fitness (ln) (37 °C)
51 | CAGAAGCAAUAUUACGAAGC | -2.87 ± 0.31 | –
52 | CAGAAGCAAUAUUACGAAUC | – | -1.93 ± 0.38
53 | CAGAAGCAAUAUUACGACGU | -1.53 ± 0.12 | -0.618 ± 0.12
54 | CAGAAGCAAUAUUACGACUU | -0.506 ± 0.078 | 0.0901 ± 0.079
55 | CAGAAGCAAUAUUACGAGCC | -3.03 ± 0.47 | -1.82 ± 0.27
56 | CAGAAGCAAUAUUACGAGCU | -2.12 ± 0.18 | -1.77 ± 0.2
57 | CAGAAGCAAUAUUACGAGGC | – | -2.83 ± 0.4
58 | CAGAAGCAAUAUUACGAUCG | -0.236 ± 0.078 | 0.167 ± 0.1
59 | CAGAAGCAAUAUUACGCAGA | -2.59 ± 0.22 | -2.55 ± 0.28
60 | CAGAAGCAAUAUUACGCCCG | -0.995 ± 0.15 | 0.147 ± 0.16
61 | CAGAAGCAAUAUUACGCUCU | -4.2 ± 0.24 | -2.41 ± 0.17
62 | CAGAAGCAAUAUUACGGAAU | -3.93 ± 0.2 | -1.94 ± 0.18
63 | CAGAAGCAAUAUUACGGAGA | – | -2.16 ± 0.24
64 | CAGAAGCAAUAUUACGGCCU | -1.29 ± 0.13 | -1.82 ± 0.23
65 | CAGAAGCAAUAUUACGGGAC | – | -1.25 ± 0.35
66 | CAGAAGCAAUAUUACGGUAA | -3.62 ± 0.25 | -2.49 ± 0.18
67 | CAGAAGCAAUAUUACGGUCA | -1.54 ± 0.13 | -1.15 ± 0.097
68 | CAGAAGCAAUAUUACGGUGC | -4.16 ± 0.24 | -3.04 ± 0.18
69 | CAGAAGCAAUAUUACGGUUC | -3.71 ± 0.19 | -2.49 ± 0.2
70 | CAGAAGCAAUAUUACGUCAG | -1.15 ± 0.056 | -0.204 ± 0.078
71 | CAGAAGCAAUAUUACGUCUA | -0.102 ± 0.07 | 0.782 ± 0.11
72 | CAGAAGCAAUAUUACGUUCG | -0.642 ± 0.051 | 0.234 ± 0.064
73 | CAGAAGCAAUAUUACGUUGG | -2.15 ± 0.11 | -0.698 ± 0.1
74 | CAGAAGCAAUAUUACGUUUG | -3.42 ± 0.19 | -2.54 ± 0.2
75 | CAGCAGCAAUAUUACGAGAC | -3.94 ± 0.36 | -2.21 ± 0.26

Row | Sequence | self-splicing fitness (ln) (30 °C) | self-splicing fitness (ln) (37 °C)
76 | CAGCAGCAAUAUUACGAGGU | -2.8 ± 0.16 | -2.42 ± 0.21
77 | CAGCAGCAAUAUUACGAUAA | -3.08 ± 0.14 | -2.24 ± 0.13
78 | CAGCAGCAAUAUUACGAUCG | -0.0679 ± 0.074 | 0.219 ± 0.094
79 | CAGCAGCAAUAUUACGAUUU | -3.59 ± 0.17 | -1.91 ± 0.15
80 | CAGCAGCAAUAUUACGCAAC | -3.45 ± 0.28 | -1.37 ± 0.25
81 | CAGCAGCAAUAUUACGCACG | -0.667 ± 0.09 | -0.264 ± 0.1
82 | CAGCAGCAAUAUUACGCAUU | -3.68 ± 0.15 | -0.546 ± 0.089
83 | CAGCAGCAAUAUUACGCGCC | -1.71 ± 0.25 | -0.362 ± 0.22
84 | CAGCAGCAAUAUUACGCGUC | -3.68 ± 0.17 | -1.24 ± 0.13
85 | CAGCAGCAAUAUUACGCUAA | -2.47 ± 0.2 | -1.72 ± 0.13
86 | CAGCAGCAAUAUUACGCUAC | -3.65 ± 0.38 | -2.81 ± 0.38
87 | CAGCAGCAAUAUUACGGAUG | -2.06 ± 0.097 | -1.48 ± 0.098
88 | CAGCAGCAAUAUUACGGGCG | 0.0476 ± 0.064 | 0.363 ± 0.083
89 | CAGCAGCAAUAUUACGGUCA | -2.45 ± 0.17 | -1.22 ± 0.11
90 | CAGCAGCAAUAUUACGGUCU | -2.87 ± 0.13 | -0.712 ± 0.1
91 | CAGCAGCAAUAUUACGGUUA | -0.417 ± 0.06 | -0.163 ± 0.059
92 | CAGCAGCAAUAUUACGUAGA | -2.13 ± 0.071 | -1.57 ± 0.097
93 | CAGCAGCAAUAUUACGUCAU | -4.22 ± 0.33 | -2.77 ± 0.23
94 | CAGCAGCAAUAUUACGUCCA | -2.61 ± 0.3 | -0.781 ± 0.22
95 | CAGCAGCAAUAUUACGUCGA | -1.73 ± 0.12 | -1.25 ± 0.11
96 | CAGCAGCAAUAUUACGUGCG | -1 ± 0.05 | -0.378 ± 0.066
97 | CAGCAGCAAUAUUACGUUCA | -2.17 ± 0.2 | -0.173 ± 0.17
98 | CAGCAGCAAUAUUACGUUCC | – | -2.13 ± 0.25
